The assay has as its target SERINC3(iHA), Serine incorporator 3 with an internal HA tag (UniProt Q13530).

Take “HIV-1 NL4.3 Nef I11G (from UniProt P03406 1-206) (natural protein)”: the SERINC3 internalization from the cell surface, relative to wild type NL4.3 Nef (flow cytometry, co-transfected CEM T cells) is 0%.
On to “HIV-1 NL4.3 Nef S8R (from UniProt P03406 1-206) (natural protein)”, for which the SERINC3 internalization from the cell surface, relative to wild type NL4.3 Nef (flow cytometry, co-transfected CEM T cells) turned out to be 50%.

The values above are taken from article PMC7515180.
